Laboratory results reported in PMC7797036.

Tests used:
[1] = biological target: APOBEC1 (A1), RNase A treated (UniProt P41238); experiment: fluorescence anisotropy
[2] = test system: APOBEC1 (A1), RNase A untreated; experiment: fluorescence anisotropy
APOBEC3H haplotype VII = experiment: fluorescence anisotropy
APOBEC3C = APOBEC3C (UniProt Q9NRW3 1-190); experiment: EMSA
APOBEC3C, sequence (Q9NRW3 whole entry): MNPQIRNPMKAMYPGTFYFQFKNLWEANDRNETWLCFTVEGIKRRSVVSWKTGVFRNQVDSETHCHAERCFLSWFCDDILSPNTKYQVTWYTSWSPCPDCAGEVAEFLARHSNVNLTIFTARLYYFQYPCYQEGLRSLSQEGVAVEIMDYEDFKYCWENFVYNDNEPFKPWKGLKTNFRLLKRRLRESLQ

APOBEC1 (A1), RNase A treated, sequence (P41238 whole entry): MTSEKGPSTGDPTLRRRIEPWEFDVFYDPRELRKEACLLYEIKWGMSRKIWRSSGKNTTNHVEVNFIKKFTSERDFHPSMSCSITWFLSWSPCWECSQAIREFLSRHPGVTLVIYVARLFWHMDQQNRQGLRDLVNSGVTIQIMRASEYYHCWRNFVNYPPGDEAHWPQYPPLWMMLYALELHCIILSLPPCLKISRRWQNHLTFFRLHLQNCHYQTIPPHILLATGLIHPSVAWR

118 nt ssDNA with two 5'TTC motifs 63 nt apart
Kd [1]: 343 nM | binding signal (fold Kd increase vs no RPA) [1]: 9 | Kd [2]: 351 nM | binding signal (fold Kd increase vs no RPA) (APOBEC3H haplotype VII): 3

ATTATTATTATTCGAATGGATTTATTTATTTATTTATTTATTT (ssDNA) [43 nt ssDNA]
binding result (APOBEC3C): binds
